Holding throughout (assay): co-IP, anti-FLAG, lysate of cells with C-FLAG B3GNT2; mass spectrometry
One test has as its target T1, NUFIP2 (human, UniProt Q7Z417 1-695).
T1 construct: also called NP_065823.1
T1 sequence (looked up): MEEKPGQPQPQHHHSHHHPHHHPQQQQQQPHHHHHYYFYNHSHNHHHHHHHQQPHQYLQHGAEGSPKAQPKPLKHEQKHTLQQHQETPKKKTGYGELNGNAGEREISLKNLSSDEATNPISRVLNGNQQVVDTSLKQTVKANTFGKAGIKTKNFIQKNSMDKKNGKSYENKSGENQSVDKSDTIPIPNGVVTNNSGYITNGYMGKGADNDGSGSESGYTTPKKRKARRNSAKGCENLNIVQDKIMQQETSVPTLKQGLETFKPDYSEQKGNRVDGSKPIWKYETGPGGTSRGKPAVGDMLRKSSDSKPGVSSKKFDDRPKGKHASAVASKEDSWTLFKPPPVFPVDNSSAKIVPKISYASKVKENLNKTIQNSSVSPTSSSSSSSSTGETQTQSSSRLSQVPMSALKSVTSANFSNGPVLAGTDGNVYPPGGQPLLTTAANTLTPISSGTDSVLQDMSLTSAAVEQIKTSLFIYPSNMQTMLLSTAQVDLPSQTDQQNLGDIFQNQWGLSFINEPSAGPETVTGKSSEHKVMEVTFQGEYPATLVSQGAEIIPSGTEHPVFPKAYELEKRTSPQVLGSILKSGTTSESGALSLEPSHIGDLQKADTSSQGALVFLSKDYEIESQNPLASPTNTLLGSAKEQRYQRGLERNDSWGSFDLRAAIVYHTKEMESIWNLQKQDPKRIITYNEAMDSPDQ
The protocol:
(§1) Cells were plated in 10-cm cell culture dishes and grown to 60-80% confluency. For each condition, two biological replicates were harvested for co-IP. Cells were washed with PBS and 4 mL of lysis buffer (20 mM HEPES, 1% Triton X-100, 150 mM NaCl, 1 mM EDTA, and 10% glycerol) containing protease inhibitor cocktail was added. Cells were scraped and lysate was incubated at 4° C. under rotary agitation for 1 h. Lysate was centrifuged at 14,000×g for 10 min at 4° C. Supernatant was transferred to a new tube and an aliquot was taken as the input. […] For Western blots, 10 μg/mL Chicken Anti-FLAG (Aves labs ET-DY100) and IgY control (R&D Systems AB-101-C) antibodies were biotinylated (Thermo Fisher Scientific 90407) and added to the respective conditions. Lysates with antibodies were incubated at 4° C. under rotary agitation overnight. For each mL of lysate, 50 μL of Pierce Protein A/G Magnetic Beads (Mass spectrometry; Thermo Fisher Scientific 88803) or Pierce Streptavidin Magnetic Beads (Western blot; Thermo Fisher Scientific 88817) was washed twice with lysis buffer. Lysates with antibodies were added to the beads and incubated at 4° C. under rotary agitation for 4 h. Beads were washed with lysis buffer 3 times and resuspended in lysis buffer for storage.
(§2) Magnetic beads were resuspended in 100 mM Tris pH 7.8, reduced, alkylated and digested with trypsin at 37° ° C. overnight. This solution was subjected to solid phase extraction to concentrate the peptides and remove unwanted reagents followed by injection onto a Shimadzu HPLC with fraction collector. Eight fractions were collected and after concentration were injected on a Waters NanoAcquity HPLC equipped with a self-packed Aeris 3 μm C18 analytical column 0.075 mm by 20 cm, (Phenomenex). Peptides were eluted using standard reverse-phase gradients. The effluent from the column was analyzed using a Thermo Orbitrap Elite mass spectrometer (nanospray configuration) operated in a data dependent manner for 54 minutes. The resulting fragmentation spectra were correlated against the known database using Proteome Discover 1.4 (Thermo Fisher Scientific).

For a further test, the target named is FAU (human, UniProt P62861 75-133). As for the experimental part: as §1, §2
The next test concerns the target T2, DDX5 (human, UniProt P17844 1-614).
T2 construct: also called NP_001307526.1
The protocol:
as §1, §2

A further test addresses T3, LMNA (human, UniProt P02545 1-646, limits assumed).
T3 construct: also called NP_733821.1
T3 sequence (looked up): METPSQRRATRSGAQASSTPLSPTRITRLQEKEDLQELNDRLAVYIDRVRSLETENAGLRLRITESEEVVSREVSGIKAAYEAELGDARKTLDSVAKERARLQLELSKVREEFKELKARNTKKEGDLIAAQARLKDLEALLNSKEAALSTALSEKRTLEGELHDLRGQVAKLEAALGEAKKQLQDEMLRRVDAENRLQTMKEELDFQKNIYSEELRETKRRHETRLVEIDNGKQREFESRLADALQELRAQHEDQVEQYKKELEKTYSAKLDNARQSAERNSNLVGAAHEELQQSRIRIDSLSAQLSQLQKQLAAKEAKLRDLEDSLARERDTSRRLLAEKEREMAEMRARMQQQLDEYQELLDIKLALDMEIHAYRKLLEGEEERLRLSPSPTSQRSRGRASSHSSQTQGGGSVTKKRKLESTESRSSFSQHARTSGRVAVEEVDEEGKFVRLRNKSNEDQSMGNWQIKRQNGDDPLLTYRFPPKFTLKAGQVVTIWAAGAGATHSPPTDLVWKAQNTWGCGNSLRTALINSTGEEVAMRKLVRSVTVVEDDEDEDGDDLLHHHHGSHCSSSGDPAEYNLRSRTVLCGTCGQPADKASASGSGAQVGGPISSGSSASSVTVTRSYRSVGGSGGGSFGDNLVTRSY
The protocol: as §1, §2

In the next test the target is T4, HUWE1 (human, UniProt Q7Z6Z7 1-4374).
T4 construct: also called NP_113584.3 (+11)
T4 sequence (Q7Z6Z7 whole entry): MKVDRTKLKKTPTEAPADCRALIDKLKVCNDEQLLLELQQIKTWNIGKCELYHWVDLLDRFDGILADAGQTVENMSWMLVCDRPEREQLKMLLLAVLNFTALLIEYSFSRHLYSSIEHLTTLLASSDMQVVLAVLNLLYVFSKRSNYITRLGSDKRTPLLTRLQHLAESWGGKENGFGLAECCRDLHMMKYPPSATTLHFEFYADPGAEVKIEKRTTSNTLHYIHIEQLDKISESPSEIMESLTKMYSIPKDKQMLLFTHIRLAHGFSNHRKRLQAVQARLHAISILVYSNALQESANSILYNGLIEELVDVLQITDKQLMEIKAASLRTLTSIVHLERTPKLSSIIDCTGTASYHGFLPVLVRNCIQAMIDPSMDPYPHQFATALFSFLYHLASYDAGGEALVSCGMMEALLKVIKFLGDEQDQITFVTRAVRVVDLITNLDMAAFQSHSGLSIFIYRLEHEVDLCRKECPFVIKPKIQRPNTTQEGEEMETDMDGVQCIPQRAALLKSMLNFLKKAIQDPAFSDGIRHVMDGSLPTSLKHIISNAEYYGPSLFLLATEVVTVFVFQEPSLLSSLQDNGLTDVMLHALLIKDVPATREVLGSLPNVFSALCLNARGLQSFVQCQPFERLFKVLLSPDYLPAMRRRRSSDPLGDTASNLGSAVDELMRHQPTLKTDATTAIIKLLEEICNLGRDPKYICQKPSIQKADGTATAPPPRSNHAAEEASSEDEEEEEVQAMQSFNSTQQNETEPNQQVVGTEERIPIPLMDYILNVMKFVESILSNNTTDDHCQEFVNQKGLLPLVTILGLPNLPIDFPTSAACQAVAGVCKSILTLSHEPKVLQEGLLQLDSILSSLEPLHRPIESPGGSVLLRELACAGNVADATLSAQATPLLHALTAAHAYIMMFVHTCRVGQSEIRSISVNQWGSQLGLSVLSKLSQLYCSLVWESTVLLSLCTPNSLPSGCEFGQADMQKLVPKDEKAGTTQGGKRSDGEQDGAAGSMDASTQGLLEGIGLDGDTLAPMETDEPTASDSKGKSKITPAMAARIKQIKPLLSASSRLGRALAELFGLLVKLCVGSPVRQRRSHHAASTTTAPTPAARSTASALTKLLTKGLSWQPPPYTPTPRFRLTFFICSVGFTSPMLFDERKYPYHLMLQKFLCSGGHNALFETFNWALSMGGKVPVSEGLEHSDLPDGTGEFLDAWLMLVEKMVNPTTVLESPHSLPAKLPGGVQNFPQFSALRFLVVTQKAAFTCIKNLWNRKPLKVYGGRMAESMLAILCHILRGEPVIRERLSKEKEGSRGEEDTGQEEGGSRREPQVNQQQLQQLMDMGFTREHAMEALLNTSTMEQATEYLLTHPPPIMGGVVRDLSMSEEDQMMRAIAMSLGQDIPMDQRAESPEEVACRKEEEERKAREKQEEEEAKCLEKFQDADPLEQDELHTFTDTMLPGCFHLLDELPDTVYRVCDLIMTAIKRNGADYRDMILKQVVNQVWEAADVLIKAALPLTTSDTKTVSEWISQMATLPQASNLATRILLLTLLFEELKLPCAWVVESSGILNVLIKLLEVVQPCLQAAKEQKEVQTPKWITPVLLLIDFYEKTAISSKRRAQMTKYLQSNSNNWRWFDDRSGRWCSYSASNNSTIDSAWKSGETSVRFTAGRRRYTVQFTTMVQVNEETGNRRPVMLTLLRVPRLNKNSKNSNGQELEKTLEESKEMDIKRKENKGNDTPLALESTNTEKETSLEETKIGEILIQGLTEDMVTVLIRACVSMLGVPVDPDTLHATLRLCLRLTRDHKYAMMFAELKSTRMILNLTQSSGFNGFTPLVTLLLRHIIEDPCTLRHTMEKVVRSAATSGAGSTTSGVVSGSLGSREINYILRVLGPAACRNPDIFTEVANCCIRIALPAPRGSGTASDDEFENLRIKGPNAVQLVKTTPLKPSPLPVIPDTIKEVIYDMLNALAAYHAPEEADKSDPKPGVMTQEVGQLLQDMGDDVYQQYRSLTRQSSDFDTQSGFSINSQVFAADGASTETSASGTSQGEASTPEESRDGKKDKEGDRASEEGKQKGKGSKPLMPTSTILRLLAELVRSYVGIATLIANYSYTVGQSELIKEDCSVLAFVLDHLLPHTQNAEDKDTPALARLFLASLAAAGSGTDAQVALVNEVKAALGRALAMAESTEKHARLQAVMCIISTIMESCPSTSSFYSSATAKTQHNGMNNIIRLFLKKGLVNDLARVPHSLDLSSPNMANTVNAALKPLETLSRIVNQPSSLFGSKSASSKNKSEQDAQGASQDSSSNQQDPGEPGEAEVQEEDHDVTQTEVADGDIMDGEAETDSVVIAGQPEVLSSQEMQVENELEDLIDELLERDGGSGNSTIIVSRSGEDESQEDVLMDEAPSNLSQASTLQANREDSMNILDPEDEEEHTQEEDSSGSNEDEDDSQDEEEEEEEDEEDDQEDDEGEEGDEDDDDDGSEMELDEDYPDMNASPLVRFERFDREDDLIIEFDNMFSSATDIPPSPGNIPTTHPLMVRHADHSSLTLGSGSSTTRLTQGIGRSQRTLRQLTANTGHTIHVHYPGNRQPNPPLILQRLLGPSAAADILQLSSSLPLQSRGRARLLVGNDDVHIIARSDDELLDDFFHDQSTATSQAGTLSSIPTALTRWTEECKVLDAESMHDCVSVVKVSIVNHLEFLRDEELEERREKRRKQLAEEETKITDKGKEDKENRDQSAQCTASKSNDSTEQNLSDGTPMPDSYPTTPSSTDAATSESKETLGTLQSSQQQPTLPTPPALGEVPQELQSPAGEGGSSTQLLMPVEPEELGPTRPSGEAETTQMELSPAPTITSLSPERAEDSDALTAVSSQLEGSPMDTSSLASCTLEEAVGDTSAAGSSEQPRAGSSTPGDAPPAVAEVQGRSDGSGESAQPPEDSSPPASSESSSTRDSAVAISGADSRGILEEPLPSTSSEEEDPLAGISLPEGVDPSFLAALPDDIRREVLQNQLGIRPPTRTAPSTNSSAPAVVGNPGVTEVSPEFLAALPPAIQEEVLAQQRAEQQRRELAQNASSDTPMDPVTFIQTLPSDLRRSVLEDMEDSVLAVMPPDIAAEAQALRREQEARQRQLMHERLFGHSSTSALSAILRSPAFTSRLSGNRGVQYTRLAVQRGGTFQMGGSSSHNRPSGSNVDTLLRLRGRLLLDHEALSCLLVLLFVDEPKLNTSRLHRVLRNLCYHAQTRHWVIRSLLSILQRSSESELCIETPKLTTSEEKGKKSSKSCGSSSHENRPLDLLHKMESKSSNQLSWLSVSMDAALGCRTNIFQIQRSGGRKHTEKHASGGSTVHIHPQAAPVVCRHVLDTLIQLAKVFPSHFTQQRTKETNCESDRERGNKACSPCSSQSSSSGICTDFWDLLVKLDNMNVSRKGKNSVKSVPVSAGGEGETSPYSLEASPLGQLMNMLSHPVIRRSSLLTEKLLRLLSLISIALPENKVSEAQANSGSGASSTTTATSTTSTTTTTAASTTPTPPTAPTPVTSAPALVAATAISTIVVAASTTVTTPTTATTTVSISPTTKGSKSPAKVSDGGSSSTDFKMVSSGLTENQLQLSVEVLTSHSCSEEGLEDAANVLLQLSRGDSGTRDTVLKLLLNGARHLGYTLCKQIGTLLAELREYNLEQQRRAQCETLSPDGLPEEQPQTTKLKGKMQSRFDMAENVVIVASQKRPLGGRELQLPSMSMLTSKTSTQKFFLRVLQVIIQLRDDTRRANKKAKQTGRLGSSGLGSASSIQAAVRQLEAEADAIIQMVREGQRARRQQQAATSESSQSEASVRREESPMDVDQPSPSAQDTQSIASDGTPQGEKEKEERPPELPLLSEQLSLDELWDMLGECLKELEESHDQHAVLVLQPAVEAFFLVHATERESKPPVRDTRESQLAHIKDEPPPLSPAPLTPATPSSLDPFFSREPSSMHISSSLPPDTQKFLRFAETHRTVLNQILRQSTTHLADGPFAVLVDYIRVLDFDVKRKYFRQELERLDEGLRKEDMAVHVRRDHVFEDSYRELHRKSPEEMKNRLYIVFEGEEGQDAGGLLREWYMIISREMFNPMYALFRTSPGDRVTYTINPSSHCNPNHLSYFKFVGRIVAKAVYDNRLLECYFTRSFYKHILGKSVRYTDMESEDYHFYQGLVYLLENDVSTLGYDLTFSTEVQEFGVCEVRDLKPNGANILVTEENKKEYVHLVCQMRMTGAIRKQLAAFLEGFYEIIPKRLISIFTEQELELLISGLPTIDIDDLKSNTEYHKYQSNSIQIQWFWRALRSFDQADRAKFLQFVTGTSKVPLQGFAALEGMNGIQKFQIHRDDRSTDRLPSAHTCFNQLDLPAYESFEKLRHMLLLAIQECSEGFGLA
As for the experimental part: as §1, §2

A further test addresses T5, PRBP1 (human, UniProt P26599 1-557).
T5 construct: Label 'PRBP1' is probably a misprint of PTBP1; also called NP_002810.1 (+4)
As for the experimental part:
as §1, §2

Another test concerns the target T6, GGCT (human, UniProt O75223 1-188).
T6 construct: also called NP_076956.1
T6 sequence (looked up): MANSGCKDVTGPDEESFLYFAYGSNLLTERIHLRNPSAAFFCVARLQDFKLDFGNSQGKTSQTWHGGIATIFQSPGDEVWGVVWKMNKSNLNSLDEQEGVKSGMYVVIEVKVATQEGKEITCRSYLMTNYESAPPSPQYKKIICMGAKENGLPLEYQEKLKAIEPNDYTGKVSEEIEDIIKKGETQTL
The protocol:
as §1, §2

T2 sequence (P17844 whole entry): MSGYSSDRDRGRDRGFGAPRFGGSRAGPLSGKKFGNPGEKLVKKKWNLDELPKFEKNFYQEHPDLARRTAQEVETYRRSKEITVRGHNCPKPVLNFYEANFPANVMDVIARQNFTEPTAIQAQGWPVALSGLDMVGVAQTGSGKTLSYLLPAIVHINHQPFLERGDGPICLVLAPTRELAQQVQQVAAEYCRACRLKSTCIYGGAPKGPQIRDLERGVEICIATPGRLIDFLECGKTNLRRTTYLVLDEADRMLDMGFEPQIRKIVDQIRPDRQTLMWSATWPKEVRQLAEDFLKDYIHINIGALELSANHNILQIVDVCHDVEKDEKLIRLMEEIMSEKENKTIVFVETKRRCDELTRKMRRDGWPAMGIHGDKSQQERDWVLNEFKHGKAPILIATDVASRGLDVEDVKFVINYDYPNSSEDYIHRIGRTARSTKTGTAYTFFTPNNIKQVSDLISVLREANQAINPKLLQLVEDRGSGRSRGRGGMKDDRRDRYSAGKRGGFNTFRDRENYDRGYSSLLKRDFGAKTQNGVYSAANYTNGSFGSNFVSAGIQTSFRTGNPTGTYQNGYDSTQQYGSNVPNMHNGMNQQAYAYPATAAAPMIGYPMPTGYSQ

B1: C-terminal FLAG tagged B3GNT2 (enzyme, human, UniProt Q9NY97 1-397, looked up)
chain: MSVGRRRIKLLGILMMANVFIYFIMEVSKSSSQEKNGKGEVIIPKEKFWKISTPPEAYWNREQEKLNRQYNPILSMLTNQTGEAGRLSNISHLNYCEPDLRVTSVVTGFNNLPDRFKDFLLYLRCRNYSLLIDQPDKCAKKPFLLLAIKSLTPHFARRQAIRESWGQESNAGNQTVVRVFLLGQTPPEDNHPDLSDMLKFESEKHQDILMWNYRDTFFNLSLKEVLFLRWVSTSCPDTEFVFKGDDDVFVNTHHILNYLNSLSKTKAKDLFIGDVIHNAGPHRDKKLKYYIPEVVYSGLYPPYAGGGGFLYSGHLALRLYHITDQVHLYPIDDVYTGMCLQKLGLVPEKHKGFRTFDIEEKNKNNICSYVDLMLVHSRKPQEMIDIWSQLQSAHLKC
notes: Overexpressed in cells and pulled down from the lysate with mouse anti-FLAG antibody; also called C-FLAG B3GNT2; C-term flag; not shown: C-terminal FLAG tag
Turning to B1, the “co-IP mass spectrometry count” value was 5 with NUFIP2; 7 with FAU; 22 in the test with DDX5; 22 with LMNA; 0 in the test with HUWE1; 9 with PRBP1. In the test with GGCT, the “co-IP mass spectrometry count” value was 0.

The record behind these values is patent US20240261333A1 (published 2024).
